In one assay the target is T1, mouse FSTL1 (Mus musculus, UniProt Q62356).
T1 construct: AAA linker + 10xHis (C); made in house; host or cells: Expi293 (transient expression; purified from culture supernatant on HisPur Cobalt Resin)
T1 sequence (Q62356 with tags, fused parts or gaps): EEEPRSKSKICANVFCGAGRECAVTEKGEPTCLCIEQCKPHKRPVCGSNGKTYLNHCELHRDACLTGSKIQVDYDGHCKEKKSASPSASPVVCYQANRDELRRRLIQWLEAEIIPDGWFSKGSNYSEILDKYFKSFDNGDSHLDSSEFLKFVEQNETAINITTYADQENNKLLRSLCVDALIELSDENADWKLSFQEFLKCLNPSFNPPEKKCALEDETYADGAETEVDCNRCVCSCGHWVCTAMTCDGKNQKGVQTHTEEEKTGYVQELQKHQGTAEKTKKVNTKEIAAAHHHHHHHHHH
Put plainly: ELISA, binding activity of purified antibody against mouse FSTL1 (Example 2). As for the experimental part: The reactivity of the obtained antibody clones described above with FSTL1 was evaluated by ELISA under the following conditions.
Antibodies used: anti-dinitrophenyl (DNP) antibody (negative control), #5-2, #5-3, #5-8, #5-10, #5-43, #6-55, and #7-34
FIGS. 64 and 65 show results of evaluating binding activity under the condition of Table 3 as to clones differing in screening and antibody purification timings.
In general terms: ELISA stands for enzyme-linked immunosorbent assay.

Assay [1] concerns induction of MSCs, cancer-associated MSCs, and M-MDSCs by FSTL1. Put plainly: Inhibitory activity against induction of MSC, cancer-associated MSC and MDSC by FSTL1 (Examples 13-15). Format: cell-based, mouse. The protocol:
Mouse bone marrow cells prepared in the same way as in Example 4 were supplemented with 20 ng/mL (final concentration) of FSTL1 and 10 μg/mL of the anti-FSTL1 antibody (#6-55, #7-34, #8-1, or #8-4), an anti-PD-L1 antibody reported to have an immunosuppression-mitigating effect, or a control antibody anti-DNP antibody and cultured under stimulation. 8 days thereafter, the number of cells was counted while the cells were stained with a PE-Cy5-labeled anti-CD45 antibody, a PE-labeled anti-ALCAM antibody, a FITC-labeled anti-CD271 antibody (Abcam plc, Cat. No. AB62122), a FITC-labeled anti-CD11b antibody (BD Pharmingen/Becton, Dickinson and Company, Cat. No. 553310), and a PE-Cy5-labeled anti-Gr1 antibody (eBioscience, Cat. No. 15-5931) in order to detect MSCs (CD45-negative cells), cancer-associated MSCs (CD45-negative, ALCAM-positive, and CD271-positive cells) which are MSCs increasing in number in association with cancer metastasis, and monocytic myeloid-derived suppressor cells (M-MDSCs: CD11b-positive, Gr1-positive, and ALCAM-positive cells) increasing in number together with cancer-associated MSCs, and the contents of the cells mentioned above were analyzed by flow cytometry using FACScan to calculate the percentage and number of MSCs per culture (FIG. 8). […] PD-L1 is expressed in MSC and presumably influences the induction of MSCs.
The antibody clone (#6-55, #7, #10, #13, or […]) was evaluated for its activity by the same testing method as in Example 13. #6-55 was set as a positive control for activity. […] Mouse bone marrow cells were supplemented with FSTL1 and the predetermined concentration of each antibody and cultured for 8 days. 5×10^4 cells/well were separated from each culture system and evaluated for the ability to differentiate into adipocytes using an adipocyte differentiation reagent included in “Mesenchymal Stem Cell Functional Identification Kit (R&D Systems, Inc., Cat. No. SC010)”. For the evaluation method, the cells were supplemented with the adipocyte differentiation reagent and cultured for 8 days. Then, adipocytes per culture system were counted under a microscope for evaluation. In the graph, none is depicted in the leftmost bar, and the control antibody is depicted in the second bar from the left followed by the anti-FSLT1 antibody clones. […]
Mouse bone marrow cells (bone marrow cells prepared in the same way as in Example 4) were supplemented with 20 ng/mL (final concentration) of FSTL1 and 20.0, 10.0, 5.0, or 2.5 μg/ml (final concentration) of the rat anti-FSTL1 antibody or #6-55. […] The cells were cultured for 8 days, and the inhibitory activity of each antibody against the induction of MSCs, cancer-associated MSCs, and M-MDSCs by FSTL1 was evaluated in the same way as in Example 13 (FIG. 10A). […]

Setting [2] is: antibody diluted from 100 ng/ml.
Setting [3] is: Example 14, FIG. 9A/39A, #6-55 as positive control.
The mark [4] stands for this setting: cross reactivity test, antibody diluted from 1000 ng/ml.

Changes are numbered by the printed parent chain. Entries after “also recorded” stand apart in the source; their conditions may differ.

B1: #5-8: chicken-mouse chimeric anti-FSTL1 antibody clone; variable regions SEQ ID NO: 771 (light), 773 (heavy) (antibody, V domains shown)
VH: AVTLDESGGGLQTPGGGLSLVCKGSGFTFSSFNMFWVRQAPGKGLEWVAGIGKDGVPKYGTAVDGRATISKDNGQSTMRLQLNNLRAEDTGTYFCAKAAGGCSYDWCGIYTGDIDTWGHGTEVIVSS
VL: ASTQPSSVSANPGEAVKITCSGGSGSYYGWYQQKSPGSAPVTVIYNNNQRPSDIPSRFSGSKSGSTATLTITGVQAEDEAVYFCGGYDSSTGHGGIFGAGTTLTVL
modifications: mouse constant regions
In the case of B1, in the assay with mouse FSTL1 (setting [2]), the “binding activity against mouse FSTL1” value was “exhibited no binding activity”.

B2: #8-1: chicken-mouse chimeric anti-FSTL1 antibody clone; variable regions SEQ ID NO: 791 (light), 793 (heavy) (antibody, V domains shown)
VH: B1 VH with G17A, T61A, T111A
VL: B1 VL with T91S
modifications: mouse constant regions
Consider B2, for which the “binding activity against mouse FSTL1” value with mouse FSTL1 (setting [2]) is recorded as “slightly exhibited binding activity; also recorded: very slightly exhibited binding activity”.

B3: #13: chicken-mouse chimeric anti-FSTL1 antibody clone; variable regions SEQ ID NO: 815 (light), 817 (heavy) (antibody, V domains shown)
VH: AVTLDESGGGLQTPGGGLSLVCKASGFTFSSVTMQWVRQAPGKGLEWVASICSGSSTYYGPAVKGRATISRDNGQNTVRLQLNNLRAEDTATYYCAKIVGRGRWSCTSAAYNIDAWGHGTEVIVSS
VL: ASTQPSSVSANPGETVKITCSGGGNNYGWYQQKSPGSAPVTVIYNNNNRPSNIPSRFSGSKSGSTNTLTITGVQAEDEAVYYCGSYDSSSDSGIFGAGTTLTVL
modifications: mouse constant regions
Regarding B3, the “inhibitory activity against the induction of MSCs, cancer-associated MSCs, and M-MDSCs by FSTL1” value (“inhibitory activity” for short) in assay [1] (setting [3]) was “inhibitory activity equivalent to or higher than that of the positive control (#6-55); also recorded: inhibitory activity equivalent to or higher than that of the positive control (16-55)”.

B4: #33: chicken-mouse chimeric anti-FSTL1 antibody clone; variable regions SEQ ID NO: 823 (light), 825 (heavy) (antibody, V domains shown)
VH: AVTLDESGGGLQTPGGGLSLVCKASGFTFSSFNMNWVRQAPGKGLEYVAEISGTGSSTYYGSAVKGRATISRDNGQSTVRLQLNNLRAEDTATYFCARGDGAYSIDAWGHGTEVIVSS
VL: ASTQPSSVSANPGETVEITCSGDSSYYGWFQQKSPGSAPVTVIYDNTNRPSDIPSRFSGSKSGSTATLTITGVRAEDEAVYYCGGYDSSTYDGIFGAGTTLTVL
modifications: mouse constant regions
For the molecule B4, the “inhibitory activity” value in assay [1] (setting [3]) is given as “inhibitory activity equivalent to or higher than that of the positive control (#6-55); also recorded: inhibitory activity equivalent to or higher than that of the positive control (16-55)”.

B5: #6-55: chicken-mouse chimeric anti-FSTL1 antibody clone; variable regions SEQ ID NO: 783 (light), 785 (heavy) (antibody, V domains shown)
VH: AVTLDESGGGLQTPGGALSLVCKGSGFTFTSVTMQWVRQAPGKGLEWVASVCSGSSTYYAPAVKGRATISRDNGQSTVRLQLSNLRPEDTGTYYCAKIAGRARWSCTSAAYNIDAWGHGTEVIVSS
VL: ASTQPSSVSAIPGETVKITCSGGGNNYGWYQQRSPGSAPVTVIYYNDNRPSNIPSRFSGSTSGSTSTLTITGVQADDEAIYYCGSWDSNTDSGIFGAGTTLTVL
modifications: mouse constant regions
Take B5: the “binding activity against mouse FSTL1” value with mouse FSTL1 (setting [4]) was “specific and equivalently strong binding activity”. Moreover, in assay [1] (Example 15, FIG. 10A/40A, 2.5-20.0 μg/ml), the dose dependence entry is on record as “No dose-dependent effect was confirmed; also recorded: dose dependence was not confirmed”. Further, in assay [1] (Example 15, FIG. 10A/40A, FSTL1 20 ng/mL, antibody 20.0, 10.0, 5.0, 2.5 μg/ml, 8 days), the “inhibitory activity” value is “slightly superior; also recorded: at the same level”.

B6: #7-34: chicken-mouse chimeric anti-FSTL1 antibody clone; variable regions SEQ ID NO: 787 (light), 789 (heavy) (antibody, V domains shown)
VH: B3 VH
VL: B3 VL with N45Y, K61T, N66S, D87E, S88G, S90T
modifications: mouse constant regions
As for B6, in the assay with mouse FSTL1 (setting [4]), the “binding activity against mouse FSTL1” value is “specific and equivalently strong binding activity”.

B7: #8-4: chicken-mouse chimeric anti-FSTL1 antibody clone; variable regions SEQ ID NO: 795 (light), 797 (heavy) (antibody, V domains shown)
VH: AVTLDESGGGLQTPGGGLSLVCKGSGFTLSSFNMFWVRQAPGKGLEWVAGVGKDGGTAYGAAVDGRATISRDSGQSTVRLQLNNLRAEDTGTYFCAKAAGGCSYSWCGAYVGDLDAWGHGTEVIVSS
VL: ASSQPSSVSANPGETVKITCSGGSGYYYGWYQQKSPGSAPVTVIYNNDNKPSDIPSRFSGSKSGSTGTLTITGVQVEDEAVYFCGGYDNSGTGIFGAGTTLTVL
modifications: mouse constant regions
In the case of B7, in the assay with mouse FSTL1 (setting [2]), the “binding activity against mouse FSTL1” value is “exhibited no binding activity”.

These data come from patent publication US20180021429A1, “ANTICANCER AGENTS OR ANTIMETASTATIC AGENTS USING FSTL1 AND COMBINATION DRUG THEREOF” (PHARMA FOODS INTERNATIONAL CO., LTD., priority 2015, published 2018).
